Results reported in patent US5128450A, “Nonglycosylated human interleukin-3 analog proteins” (priority 1989, dated 1992).

Tests used:
[1] = tested on: human bone marrow cells; test: Human bone marrow proliferation assay; format: cell-based
Protocol: Freshly isolated human bone marrow cells are preincubated for 2 hours at 37° C., 5% CO2, in tissue culture flasks containing 2×10^6 cells per mi prewarmed, pregassed serum-free RPMI1640 medium (Gibco, Chagrin Falls, OH, USA) containing 50 units/ml penicillin, 50 μg/ml streptomycin, and 300 μg/ml fresh L-glutamine (hereinafter "assay medium"). After preincubation, nonadherent cells are removed by pipetting the media gently over the surface of the flask. Nonadherent cells are collected by centrifugation at 1000 rpm for 10 minutes at 4° C., resuspended in a small volume of assay medium containing 10% fetal bovine serum (FBS), and counted using Trypan blue for viability and Turks stain for recovery of white cells. Cells are kept at about 4° C. in assay medium containing 10% FBS until added to assay plates.
50 μl assay medium are added to each well of a 96 well flat bottom tissue culture plate. 50 μl of sample diluted in assay medium are added to the first well of each row, and serial dilutions are made across each row in the usual manner. […] After incubation, cells are harvested onto glass fiber filters, washed, and tested for incorporated radioactivity using a scintillation counter. Units of huIL-3 activity are calculated by reference to the quantity of huIL-3 which induces 50% of maximal thymidine incorporation. […]

[2] = tested on: rhesus monkeys; details: cited from earlier work

B1: Met^3 rhuIL-3 (Pro^8 Asp^15 Asp^70): truncated, non-glycosylated IL-3 analog having an N-terminus at Met^3, expressed from pIXY290 (protein, UniProt P08700 20-152, looked up, variant del1-2 N15D N70D)
Interleukin-3: MTQTTPLKTSWVDCSNMIDEIITHLKQPPLPLLDFNNLNGEDQDILMENNLRRPNLEAFNRAVKSLQDASAIESILKNLLPCLPLATAAPTRHPIHIKDGDWNEFRRKLTFYLKTLENAQAQQTTLSLAIF
[1]
  biological activity compared with production lots of Example 2: comparable in biological activity to the rhuIL-3 production lots

B2: huIL-3 (Ser^8): composition of huIL-3 (Ser^8) produced in E. coli, reported by Valent et al. (protein, UniProt P08700 20-152, looked up, variant P8S)
Interleukin-3: APMTQTTSLKTSWVNCSNMIDEIITHLKQPPLPLLDFNNLNGEDQDILMENNLRRPNLEAFNRAVKSLQNASAIESILKNLLPCLPLATAAPTRHPIHIKDGDWNEFRRKLTFYLKTLENAQAQQTTLSLAIF
[2]; after IL-3 treatment until day 8-10
  intracellular histamine (IH) in WBC: rise continuously
[2]; by day 14, 11, 33, 100 μg/kg/day s.c. thrice daily
  white blood cell (WBC) increase: 2-3 fold
[2]; rhesus monkey, in vivo
  plasma histamine: rise in plasma histamine values
  skin side effects (skin biopsy): urticaria-like exanthem revealing infiltration of mast cells and lymphocytes into the dermis
